Measured values reported in US20230063116A1 (Regeneron, published 2023).
Where two headings read alike, the source gives them in different places.

B1: human VEGF165 (REGN110) (ligand)
chain: APMAEGGGQNHHEVVKFMDVYQRSYCHPIETLVDIFQEYPDEIEYIFKPSCVPLMRCGGCCNDEGLECVPTEESNITMQIMRIKPHQGQHIGEMSFLQHNKCECRPKKDRARQENPCGPCSERRKHLFVQDPQTCKCSCKNTDSRCKARQLELNERTCRCDKPRR
notes: It is treated here as the same molecule; also called hVEGF165; hVEGF165(M1-R191)
B3: REGN3, full-length VEGF Trap (aflibercept) (Fc fusion, human, UniProt P17948 129-231, looked up, not shown: a dimerising Fc or GST)
chain: SDTGRPFVEMYSEIPEIIHMTEGRELVIPCRVTSPNITVTLKKFPLDTLIPDGKRIIWDSRKGFIISNATYKEIGLLTCEATVNGHLYKTNYLTHRQTNTIIDVVLSPSHGIELSVGEKLVLNCTARTELNVGIDFNWEYPSSKHQHKKLVNRDLKTQSGSEMKKFLSTLTIDGVTRSDQGLYTCAASSGLMTKKNSTFVRVHEK
notes: range 129-231;range 226-327; also called Eylea; VEFGR1d2-VEGFR2d3 VEGF Trap

Key:
[1] = biological target: B3; test: SPR, Biacore, 25 C; trap captured on anti-VEGFR1 mAb surface, hVEGF165 injected; 1:1 fit
Procedure: (§1) Experimental Procedure. Equilibrium dissociation constants (KD values) for human VEGF₁₆₅ binding to various purified VEGF mini-trap constructs were determined using a real-time surface plasmon resonance biosensor using a Biacore 3000 instrument. All binding studies were performed in 10 mM HEPES, 150 mM NaCl, 3 mM EDTA, and 0.05% v/v Surfactant Tween-20, pH 7.4 (HBS-ET) running buffer at 25° C. The Biacore sensor surface was first derivatized by amine coupling with a monoclonal mouse anti-VEGFR1 antibody to capture VEGF mini-trap constructs. Binding studies were performed on the human VEGF reagent, human VEGF₁₆₅ (human VEGF₁₆₅; SEQ ID NO: 31). Different concentrations of VEGF₁₆₅ reagent, prepared in HBS-ET running buffer (2 nM — 62.5 pM; 2-fold serial dilution for human VEGF₁₆₅), were injected over an anti-VEGFR1-captured VEGF mini-trap construct surface for 1.8 minutes at a flow rate of 90 μL/minute, while the dissociation of VEGF mini-trap constructs bound VEGF₁₆₅ reagent was monitored for 60 minutes in HBS-ET running buffer. Kinetic association (kₐ) and dissociation (kd) rate constants were determined by fitting the real-time sensorgrams to a 1:1 binding model using Scrubber 2.0c curve fitting software. Binding dissociation equilibrium constants (KD) and dissociative half-lives (t½) were calculated from the kinetic rate constants as: […]

[2] = biological target: chimeric VEGFR1 receptors on HEK293/D9/Flt-IL18Rα/Flt-IL18Rβ clone V3H9 cells (UniProt P17948 27-758; Q13478 351-541; P17948 27-758; O95256 378-599, limits assumed); test: cell-based or functional assay
[3] = biological target: B3; test: SPR, Biacore 3000, 25 C; trap captured on anti-VEGFR1 mAb surface, hVEGF165 injected; 1:1 fit
[4] = biological target: T1, VEGF110 (hVEGF110, aa 207-318) (human, UniProt P15692 207-318); test: cell-based or functional assay
T1 sequence (looked up): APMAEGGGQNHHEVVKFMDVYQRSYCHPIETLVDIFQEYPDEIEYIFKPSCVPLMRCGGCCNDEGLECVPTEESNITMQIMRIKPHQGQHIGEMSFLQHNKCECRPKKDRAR

human VEGF165 (REGN110) [5] = biological target: B1; test: cell-based or functional assay
[6] = biological target: T2, VEGF121 (hVEGF121, aa 207-327) (human, UniProt P15692 207-327); test: cell-based or functional assay
T2 chain: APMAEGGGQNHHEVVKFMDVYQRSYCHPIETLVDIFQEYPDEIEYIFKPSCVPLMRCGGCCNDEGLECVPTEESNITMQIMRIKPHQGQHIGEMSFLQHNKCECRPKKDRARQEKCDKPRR

human VEGF165 (REGN110) [7] = biological target: B1; test: SPR, Biacore 3000, 25 C; trap captured on anti-VEGFR1 mAb surface, hVEGF165 injected
[8] = biological target: T2, VEGF121 (hVEGF121, aa 207-327); test: cell-based or functional assay
human VEGF165 (REGN110) [9] = biological target: B1; test: cell-based or functional assay; remark: listed apart in the source
[10] = biological target: T1, VEGF110 (hVEGF110, aa 207-318); test: cell-based or functional assay; remark: listed apart in the source
[11] = biological target: T2, VEGF121 (hVEGF121, aa 207-327); test: cell-based or functional assay
human VEGF165 (REGN110) [12] = biological target: B1; test: cell-based or functional assay; remark: listed apart in the source
[13] = biological target: T1, VEGF110 (hVEGF110, aa 207-318); test: cell-based or functional assay; remark: listed apart in the source
human VEGF165 (REGN110) [14] = biological target: B1; test: SPR, Biacore, 25 C; trap captured on anti-VEGFR1 mAb surface, hVEGF165 injected; 1:1 fit
Procedure: as §1

[15] = biological target: T2, VEGF121 (hVEGF121, aa 207-327); test: cell-based or functional assay
[16] = biological target: T1, VEGF110 (hVEGF110, aa 207-318); test: cell-based or functional assay; remark: listed apart in the source
human VEGF165 (REGN110) [17] = biological target: B1; test: SPR, Biacore, 25 C; trap captured on anti-VEGFR1 mAb surface, hVEGF165 injected
Procedure: as §1

human VEGF165 (REGN110) [18] = biological target: B1; test: SPR, Biacore 3000, 25 C; trap captured on anti-VEGFR1 mAb surface, hVEGF165 injected; 1:1 fit

chimeric VEGFR1 receptors on HEK293/D9/Flt-IL18Rα/Flt-IL18Rβ clone V3H9 cells, sequence (P17948 other isoform, or with tags, fused parts or gaps mutant limits assumed, chain 1 of 2): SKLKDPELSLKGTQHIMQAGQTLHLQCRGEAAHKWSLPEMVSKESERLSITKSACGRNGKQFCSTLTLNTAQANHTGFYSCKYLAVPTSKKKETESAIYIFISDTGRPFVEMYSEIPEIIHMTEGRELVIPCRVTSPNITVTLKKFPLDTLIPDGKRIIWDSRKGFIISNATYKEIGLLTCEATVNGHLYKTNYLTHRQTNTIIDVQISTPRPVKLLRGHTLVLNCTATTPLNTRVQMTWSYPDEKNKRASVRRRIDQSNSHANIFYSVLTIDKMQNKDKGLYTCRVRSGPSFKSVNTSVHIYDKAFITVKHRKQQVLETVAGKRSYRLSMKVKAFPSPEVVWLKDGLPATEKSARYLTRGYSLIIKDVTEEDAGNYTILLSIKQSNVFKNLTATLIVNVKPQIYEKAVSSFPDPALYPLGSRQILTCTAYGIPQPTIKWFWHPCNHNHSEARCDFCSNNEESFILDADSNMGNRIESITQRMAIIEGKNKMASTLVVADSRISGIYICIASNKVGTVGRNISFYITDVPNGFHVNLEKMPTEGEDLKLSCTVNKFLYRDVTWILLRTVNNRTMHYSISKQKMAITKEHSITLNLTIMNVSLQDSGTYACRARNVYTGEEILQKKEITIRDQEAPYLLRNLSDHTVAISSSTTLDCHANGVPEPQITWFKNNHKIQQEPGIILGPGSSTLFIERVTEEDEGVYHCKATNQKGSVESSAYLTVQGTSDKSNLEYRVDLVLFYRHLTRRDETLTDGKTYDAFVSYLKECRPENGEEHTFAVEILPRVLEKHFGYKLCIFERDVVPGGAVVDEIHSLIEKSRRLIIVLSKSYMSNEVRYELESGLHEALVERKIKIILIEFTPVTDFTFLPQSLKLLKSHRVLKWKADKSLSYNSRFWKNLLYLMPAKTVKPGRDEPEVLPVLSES
chimeric VEGFR1 receptors on HEK293/D9/Flt-IL18Rα/Flt-IL18Rβ clone V3H9 cells, sequence (P17948 other isoform, or with tags, fused parts or gaps mutant limits assumed, chain 2 of 2): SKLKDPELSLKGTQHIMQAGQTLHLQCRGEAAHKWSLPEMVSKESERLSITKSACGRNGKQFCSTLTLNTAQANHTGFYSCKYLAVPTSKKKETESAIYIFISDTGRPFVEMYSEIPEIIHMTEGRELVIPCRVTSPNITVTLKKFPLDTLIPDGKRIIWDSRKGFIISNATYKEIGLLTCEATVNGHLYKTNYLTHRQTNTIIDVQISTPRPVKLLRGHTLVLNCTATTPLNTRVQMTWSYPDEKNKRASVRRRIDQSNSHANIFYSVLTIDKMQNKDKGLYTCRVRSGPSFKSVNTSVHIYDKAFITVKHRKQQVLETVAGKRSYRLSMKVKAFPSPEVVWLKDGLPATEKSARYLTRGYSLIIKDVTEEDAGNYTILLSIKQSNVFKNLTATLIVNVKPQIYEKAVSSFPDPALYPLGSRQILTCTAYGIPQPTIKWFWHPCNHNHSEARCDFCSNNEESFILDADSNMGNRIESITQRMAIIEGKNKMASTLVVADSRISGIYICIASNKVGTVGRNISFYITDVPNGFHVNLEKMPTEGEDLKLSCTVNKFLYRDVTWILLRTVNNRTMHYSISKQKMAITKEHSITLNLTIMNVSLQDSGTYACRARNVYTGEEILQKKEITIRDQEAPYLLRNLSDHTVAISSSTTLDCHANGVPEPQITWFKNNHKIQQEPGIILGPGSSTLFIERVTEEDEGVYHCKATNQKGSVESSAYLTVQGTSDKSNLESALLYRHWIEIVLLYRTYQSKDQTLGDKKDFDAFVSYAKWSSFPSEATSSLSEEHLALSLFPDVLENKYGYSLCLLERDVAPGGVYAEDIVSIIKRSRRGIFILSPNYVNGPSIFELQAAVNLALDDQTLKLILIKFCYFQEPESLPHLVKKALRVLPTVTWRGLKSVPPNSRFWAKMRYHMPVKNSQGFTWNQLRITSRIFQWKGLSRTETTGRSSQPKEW

B1
Kd [1]: ≤ 0.00127 nM | EC50 (M), activation of HEK293/D9/Flt-IL18Ra/Flt-IL18Rb (luciferase) [2]: 4.3e-11 M | Kd [3]: ≤ 0.00179 nM

B2: REGN112 (receptor)
chain: SDTGRPFVEMYSEIPEIIHMTEGRELVIPCRVTSPNITVTLKKFPLDTLIPDGKRIIWDSRKGFIISNATYKEIGLLTCEATVNGHLYKTNYLTHRQTNTIIDVVLSPSHGIELSVGEKLVLNCTARTELNVGIDFNWEYPSSKHQHKKLVNRDLKTQSGSEMKKFLSTLTIDGVTRSDQGLYTCAASSGLMTKKNSTFVRVHEKDKTHTCPPC
IC50 (read off the curve); VEGFR1 reporter luciferase with 20 pM VEGF110 constant [4]: ~1e-10 M | IC50 (read off the curve); VEGFR1 reporter luciferase with 40 pM VEGF165 constant (human VEGF165 (REGN110) [5]): ~2e-10 M | IC50 (read off the curve); VEGFR1 reporter luciferase with 40 pM VEGF121 constant [6]: ~1e-10 M

B3
100 nM hVEGF165 Bound (human VEGF165 (REGN110) [7]): 21 RU | IC50 (M), inhibition of VEGFR1 signaling (luciferase), 20 pM VEGF121 [8]: 8.94e-12 M | IC50 (M), inhibition of VEGFR1 signaling (luciferase), 20 pM VEGF165 (human VEGF165 (REGN110) [9]): 1.18e-11 M | IC50 (M), inhibition of VEGFR1 signaling (luciferase), 20 pM VEGF110 [10]: 1.53e-11 M | IC50 (M), inhibition of VEGFR1 signaling (luciferase), 20 pM VEGF121 [11]: 1.26e-11 M | IC50 (M), inhibition of VEGFR1 signaling (luciferase), 20 pM VEGF165 (human VEGF165 (REGN110) [12]): 2.09e-11 M | IC50 (M), inhibition of VEGFR1 signaling (luciferase), 20 pM VEGF110 [13]: 1.15e-11 M | t1/2 (dissociative half-life) (human VEGF165 (REGN110) [14]): ≥ 19.2 h | IC50 (M), inhibition of VEGFR1 signaling (luciferase), 20 pM VEGF121 [15]: 9.64e-12 M | IC50 (M), inhibition of VEGFR1 signaling (luciferase), 20 pM VEGF110 [16]: 1.53e-11 M | 2nM hVEGF165 Bound (human VEGF165 (REGN110) [17]): 29 RU | t½ (dissociative half-life) (human VEGF165 (REGN110) [18]): ≥ 19.2 h
